Data as given in CN116819103A.

Molecular target: 大熊猫TSHβ亚基特异序列多肽片段TSHβ-2 (大熊猫 (giant panda))
Test: indirect ELISA, peptide TSHβ-2 coated at 2 μg/mL, HRP goat anti-mouse, OD450

Chain of 大熊猫TSHβ亚基特异序列多肽片段TSHβ-2 (大熊猫 (giant panda)) (peptide, as listed by the source): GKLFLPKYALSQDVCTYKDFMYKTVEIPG

效价 (ELISA titer) (fold dilution): > 1e+06
B1: 大熊猫TSHβ单克隆抗体 (杂交瘤细胞株TSHB-B, CCTCC NO: C202283) (antibody, IgG1, V domains shown)
VH: EVKLVESGGGLVKPGGSLKLSCAASGFSFSRYAMSWVRHAPENRLEWVAAISRGGNLYYRDSVKGRFTISRDDARNILYLQMSSLRSEDTAMYYCTRDDYDEDWYFDVWGAGTTVTVSS
VL: DVLMTQTPLSLPVSLGEQASISCRSSQIIVHSNGNTYLEWYLQKPGQSPKLLIYKVSNRFSGVPDRFSGSGSGTDFTLKISRVEAEDLGVYYCFHGSHIPPTFGGGTKLEIK
